Test results from patent publication US10184115B2, “Mutated cellobiose dehydrogenase with increased substrate specificity” (DIRECTSENS GMBH, priority 2012, dated 2019).

Assays:
[1] = substrate: OC[C@H]1OC(O)[C@H](O)[C@@H](O)[C@@H]1O; assay: Steady-state kinetics, DCIP assay: M. thermophilum CDH W316L; type: biochemical, Myriococcum thermophilum; conditions: other: apparent, pH 4.5, 30° C., ~ values only estimated by non linear regression
Method: (§1) Enzyme activity was assayed at 30° C. using either the DCIP (Karapetyan et al., 2005 Journal of Biotechnology 121: 34-48) or cytochrome c (Canevascini et al., 1991, European Journal of Biochemistry 198: 43-52) as electron acceptor. […] Stock solutions of carbohydrates used for kinetic measurements were prepared in the respective buffer and allowed to stand overnight for mutarotation, while stock solutions of electron acceptors were prepared in water and immediately used. The reaction stoichiometry is 1 for the two-electron acceptor DCIP (1 mole of DCIP reduced per mole of carbohydrate oxidized), but 2 for the one-electron acceptor cytochrome c. Kinetic constants were calculated by fitting the observed data to the Henri-Michaelis-Menten equation or to the adapted model for substrate inhibition using nonlinear least-squares regression and the program SigmaPlot (Systat Software, San Jose, Calif., USA). […]
(§2) Recombinant wild-type CDH as well as variants were produced in 1 L baffled flasks. […] Increase in activity was monitored using the DCIP and the cytochrome c enzyme assays. […]
(§3) Enzymes were purified to homogeneity in a two-step purification. […] Fractions were tested for CDH activity and pooled according to the highest Reinheitszahl (RZ, calculated from the absorbance ratio 420 nm/280 nm). […]

[2] = substrate: OC[C@H]1O[C@H](O[C@H]2[C@H](O)[C@@H](O)C(O)O[C@@H]2CO)[C@H](O)[C@@H](O)[C@@H]1O; assay: Steady-state kinetics, DCIP assay: M. thermophilum CDH wt; type: biochemical, Myriococcum thermophilum; conditions: other: apparent, pH 4.5, 30° C.
Method: (§4) Enzyme activity was assayed at 30° C. using either the DCIP (Karapetyan et al., 2005 Journal of Biotechnology 121: 34-48) or cytochrome c (Canevascini et al., 1991, European Journal of Biochemistry 198: 43-52) as electron acceptor. […] Stock solutions of carbohydrates used for kinetic measurements were prepared in the respective buffer and allowed to stand overnight for mutarotation, while stock solutions of electron acceptors were prepared in water and immediately used. The reaction stoichiometry is 1 for the two-electron acceptor DCIP (1 mole of DCIP reduced per mole of carbohydrate oxidized), but 2 for the one-electron acceptor cytochrome c. Kinetic constants were calculated by fitting the observed data to the Henri-Michaelis-Menten equation or to the adapted model for substrate inhibition using nonlinear least-squares regression and the program SigmaPlot (Systat Software, San Jose, Calif., USA).
(§5) Enzymes were purified to homogeneity in a two-step purification. The sample was loaded on a 20 mL PHE Sepharose FF column (HR26/20) equilibrated with 50 mM Na-acetate buffer pH 5.5 containing 20% ammonium sulfate. Proteins were eluted by increasing the concentration of the elution buffer (50 mM Na-acetate buffer pH 5.5) from 0 to 100% in 5 column volumes and fractions containing CDH activity were pooled. After diafiltration with a polyethersulfone flat-stack cross flow module with a cut-off of 10 kDa (Viva Flow 50, Sartorius, Göttingen, Germany) until conductivity of 5 mS cm^−1 in 20 mM Na-acetate pH 5.5 the samples were loaded on a 20 mL Q-Source column (HR26/20) equilibrated with a 20 mM Na-acetate buffer pH 5.5. CDH was eluted by increasing the concentration of the elution buffer (50 mM Na-acetate buffer pH 5.5 containing 0.5 M NaCl) from 0 to 100% in 50 column volumes. Fractions were tested for CDH activity and pooled according to the highest Reinheitszahl (RZ, calculated from the absorbance ratio 420 nm/280 nm). Purified enzymes were concentrated and diafiltered in 50 mM citrate buffer, pH 5.5, aliquoted and kept at 4° C. for further use.

[3] = substrate: OC[C@H]1OC(O)[C@H](O)[C@@H](O)[C@@H]1O; assay: Steady-state kinetics, DCIP assay: M. thermophilum CDH R622N; type: biochemical, Myriococcum thermophilum; conditions: other: apparent, pH 4.5, 30° C., ~ values only estimated by non linear regression
Method: as §1, §2, §3

[4] = substrate: OC[C@H]1OC(O)[C@H](O)[C@@H](O)[C@@H]1O; assay: Steady-state kinetics, DCIP assay: M. thermophilum CDH W316R; type: biochemical, Myriococcum thermophilum; conditions: other: apparent, pH 4.5, 30° C., ~ values only estimated by non linear regression
Method: as §1, §2, §3

[5] = substrate: OC[C@H]1OC(O)[C@H](O)[C@@H](O)[C@@H]1O; assay: Steady-state kinetics, DCIP assay: C. thermophilus CDH C310Y; type: biochemical, Corynascus thermophilus; conditions: other: apparent, pH 5.5, 30° C.
Method: as §4, §5

[6] = substrate: OC[C@H]1O[C@H](O[C@H]2[C@H](O)[C@@H](O)C(O)O[C@@H]2CO)[C@H](O)[C@@H](O)[C@@H]1O; assay: as above; type: biochemical, Corynascus thermophilus; conditions: other: apparent, pH 5.5, 30° C.
Method: as §4, §5

[7] = substrate: OC[C@H]1OC(O)[C@H](O)[C@@H](O)[C@@H]1O; assay: Steady-state kinetics, DCIP assay: C. thermophilus flavodehydrogenase domain C310Y; type: biochemical, Corynascus thermophilus; conditions: other: apparent, pH 5.5, 30° C.
Method: as §4
(§6) Recombinant wild-type CDH as well as variants were produced in 1 L baffled flasks. Precultures were grown overnight in 30 mL of YPD medium at 30° C. and 120 rpm. After approximately 18 hours the precultures were transferred into 1 L baffled flasks containing 200 mL BMGY medium without methanol. Induction with methanol was started immediately using a multichannel peristaltic pump (Minipuls Evolution, Gilson, Middleton, Wis., USA). Each flask was supplied eight times a day with methanol yielding a total concentration of 2% (v/v) methanol per day. Increase in activity was monitored using the DCIP and the cytochrome c enzyme assays. Cultivation was stopped at day five of methanol induction, cells removed by centrifugation (4000 rpm, 20 min) and the supernatant set to a final ammonium sulfate concentration of 20%.
as §5

[8] = substrate: OC[C@H]1O[C@H](O[C@H]2[C@H](O)[C@@H](O)C(O)O[C@@H]2CO)[C@H](O)[C@@H](O)[C@@H]1O; assay: as above; type: biochemical, Corynascus thermophilus; conditions: other: apparent, pH 5.5, 30° C.
Method: as §4, §6, §5

B1: Myriococcum thermophilum cellobiose dehydrogenase (CDH, SEQ ID NO: 1) variant W316L (Thermothelomyces myriococcoides; W316L) (protein)
chain: QNNVPNTFTDPDSGITFNTWGLDEDSPQTQGGFTFGVALPSDALTTDASEFIGYLKCARNDESGWCGISLGGPMTNSLLITAWPHEDTVYTSLRFATGYAMPDVYEGDAEITQVSSSVNSTHFSLIFRCKNCLQWSHGGSSGGASTSGGVLVLGWVQAFDDPGNPTCPEQITLQQHDNGMGIWGAQLNTDAASPSYTDWAAQATKTVTGDCEGPTETSVVGVPVPTGVSFDYIVVGGGAGGIPAADKLSEAGKSVLLIEKGFASTANTGGTLGPEWLEGHDLTRFDVPGLCNQILVDSKGIACEDTDQMAGCVLGGGTAVNAGLWFKPYSLDWDYLFPDGWKYNDVQPAINRALSRIPGTDAPSTDGKRYYQEGFEVLSKGLAAGGWTSVTANNAPDKKNRTFAHAPFMFAGGERNGPLGTYFQTAKKRNNFDVWLNTSVKRVIREGGHITGVEVEPFRDGGYEGIVPVTKVTGRVILSAGTFGSAKILLRSGIGPEDQLEVVAASEKDGPTMIGNSSWINLPVGYNLDDHLNTDTVISHPDVVFYDFYEAWDDPIESDKNSYLESRTGILAQAAPNIGPMFWEEIVGADGIVRQLQWTARVEGSLGAPNGHTMTMSQYLGRGATSRGRMTITPSLTTIVSDVPYLKDPNDKEAVIQGIINLQNALQNVANLTWLFPNSTITPREYVESMVVSPSNRRSNHWMGTNKLGTDDGRKGGSAVVDLDTRVYGTDNLFVIDASIFPGVPTTNPTSYIVVAAEHASSRILALPDLEPVPKYGQCGGREWTGSFVCADGSTCEYQNEWYSQCL
In the case of B1, the kcat [1] is reported as 9.9 s⁻¹ and the kcat/Km [1] is reported as 2.8 M⁻¹ s⁻¹.

B2: Myriococcum thermophilum cellobiose dehydrogenase (CDH), recombinant wild type, SEQ ID NO: 1 (Thermothelomyces myriococcoides) (protein)
chain: QNNVPNTFTDPDSGITFNTWGLDEDSPQTQGGFTFGVALPSDALTTDASEFIGYLKCARNDESGWCGISLGGPMTNSLLITAWPHEDTVYTSLRFATGYAMPDVYEGDAEITQVSSSVNSTHFSLIFRCKNCLQWSHGGSSGGASTSGGVLVLGWVQAFDDPGNPTCPEQITLQQHDNGMGIWGAQLNTDAASPSYTDWAAQATKTVTGDCEGPTETSVVGVPVPTGVSFDYIVVGGGAGGIPAADKLSEAGKSVLLIEKGFASTANTGGTLGPEWLEGHDLTRFDVPGLCNQIWVDSKGIACEDTDQMAGCVLGGGTAVNAGLWFKPYSLDWDYLFPDGWKYNDVQPAINRALSRIPGTDAPSTDGKRYYQEGFEVLSKGLAAGGWTSVTANNAPDKKNRTFAHAPFMFAGGERNGPLGTYFQTAKKRNNFDVWLNTSVKRVIREGGHITGVEVEPFRDGGYEGIVPVTKVTGRVILSAGTFGSAKILLRSGIGPEDQLEVVAASEKDGPTMIGNSSWINLPVGYNLDDHLNTDTVISHPDVVFYDFYEAWDDPIESDKNSYLESRTGILAQAAPNIGPMFWEEIVGADGIVRQLQWTARVEGSLGAPNGHTMTMSQYLGRGATSRGRMTITPSLTTIVSDVPYLKDPNDKEAVIQGIINLQNALQNVANLTWLFPNSTITPREYVESMVVSPSNRRSNHWMGTNKLGTDDGRKGGSAVVDLDTRVYGTDNLFVIDASIFPGVPTTNPTSYIVVAAEHASSRILALPDLEPVPKYGQCGGREWTGSFVCADGSTCEYQNEWYSQCL
In the case of B2, the Km [2] is reported as 6.8 mM, the kcat [2] is reported as 0.32 s⁻¹ and the kcat/Km [2] is reported as 47 M⁻¹ s⁻¹.

B3: Myriococcum thermophilum cellobiose dehydrogenase (CDH, SEQ ID NO: 1) variant R622N (Thermothelomyces myriococcoides; R622N) (protein)
chain: QNNVPNTFTDPDSGITFNTWGLDEDSPQTQGGFTFGVALPSDALTTDASEFIGYLKCARNDESGWCGISLGGPMTNSLLITAWPHEDTVYTSLRFATGYAMPDVYEGDAEITQVSSSVNSTHFSLIFRCKNCLQWSHGGSSGGASTSGGVLVLGWVQAFDDPGNPTCPEQITLQQHDNGMGIWGAQLNTDAASPSYTDWAAQATKTVTGDCEGPTETSVVGVPVPTGVSFDYIVVGGGAGGIPAADKLSEAGKSVLLIEKGFASTANTGGTLGPEWLEGHDLTRFDVPGLCNQIWVDSKGIACEDTDQMAGCVLGGGTAVNAGLWFKPYSLDWDYLFPDGWKYNDVQPAINRALSRIPGTDAPSTDGKRYYQEGFEVLSKGLAAGGWTSVTANNAPDKKNRTFAHAPFMFAGGERNGPLGTYFQTAKKRNNFDVWLNTSVKRVIREGGHITGVEVEPFRDGGYEGIVPVTKVTGRVILSAGTFGSAKILLRSGIGPEDQLEVVAASEKDGPTMIGNSSWINLPVGYNLDDHLNTDTVISHPDVVFYDFYEAWDDPIESDKNSYLESRTGILAQAAPNIGPMFWEEIVGADGIVRQLQWTANVEGSLGAPNGHTMTMSQYLGRGATSRGRMTITPSLTTIVSDVPYLKDPNDKEAVIQGIINLQNALQNVANLTWLFPNSTITPREYVESMVVSPSNRRSNHWMGTNKLGTDDGRKGGSAVVDLDTRVYGTDNLFVIDASIFPGVPTTNPTSYIVVAAEHASSRILALPDLEPVPKYGQCGGREWTGSFVCADGSTCEYQNEWYSQCL
Work on B3 yielded a kcat [3] of 13.1 s⁻¹ and a kcat/Km [3] of 6.0 M⁻¹ s⁻¹.

B4: Myriococcum thermophilum cellobiose dehydrogenase (CDH, SEQ ID NO: 1) variant W316R (Thermothelomyces myriococcoides; W316R) (protein)
chain: QNNVPNTFTDPDSGITFNTWGLDEDSPQTQGGFTFGVALPSDALTTDASEFIGYLKCARNDESGWCGISLGGPMTNSLLITAWPHEDTVYTSLRFATGYAMPDVYEGDAEITQVSSSVNSTHFSLIFRCKNCLQWSHGGSSGGASTSGGVLVLGWVQAFDDPGNPTCPEQITLQQHDNGMGIWGAQLNTDAASPSYTDWAAQATKTVTGDCEGPTETSVVGVPVPTGVSFDYIVVGGGAGGIPAADKLSEAGKSVLLIEKGFASTANTGGTLGPEWLEGHDLTRFDVPGLCNQIRVDSKGIACEDTDQMAGCVLGGGTAVNAGLWFKPYSLDWDYLFPDGWKYNDVQPAINRALSRIPGTDAPSTDGKRYYQEGFEVLSKGLAAGGWTSVTANNAPDKKNRTFAHAPFMFAGGERNGPLGTYFQTAKKRNNFDVWLNTSVKRVIREGGHITGVEVEPFRDGGYEGIVPVTKVTGRVILSAGTFGSAKILLRSGIGPEDQLEVVAASEKDGPTMIGNSSWINLPVGYNLDDHLNTDTVISHPDVVFYDFYEAWDDPIESDKNSYLESRTGILAQAAPNIGPMFWEEIVGADGIVRQLQWTARVEGSLGAPNGHTMTMSQYLGRGATSRGRMTITPSLTTIVSDVPYLKDPNDKEAVIQGIINLQNALQNVANLTWLFPNSTITPREYVESMVVSPSNRRSNHWMGTNKLGTDDGRKGGSAVVDLDTRVYGTDNLFVIDASIFPGVPTTNPTSYIVVAAEHASSRILALPDLEPVPKYGQCGGREWTGSFVCADGSTCEYQNEWYSQCL
For B4, the kcat [4] was 1.2 s⁻¹ and the kcat/Km [4] was 0.34 M⁻¹ s⁻¹.

B5: Corynascus thermophilus cellobiose dehydrogenase (CDH, SEQ ID NO: 7) variant C310Y (Thermothelomyces fergusii; C310Y) (protein)
chain: QMTEGTYTHEATGITFKTWTPSDGSTFTFGLALPGDALTNDATEYIGLLRCQITDPSSPGYCGISHGQSGQMTQALLLVAWASEDVVYTSFRYATGYTLPELYTGDAKLTQIASSVSGDSFEVLFRCENCFSWDQNGATGSVSTSNGALVLGYAASKSGLTGATCPDTAEFGFHNNGFGQWGAVLEGATSDSYEEWAQLATITPPTTCDGNGPGDKVCVPAPEDTYDYIVVGAGAGGITVADKLSEAGHKVLLIEKGPPSTGLWNGTMKPEWLEGTDLTRFDVPGLYNQIWVDSAGIACTDTDQMAGCVLGGGTAVNAGLWWKPHPADWDDNFPHGWKSSDLADATERVFSRIPGTWHPSQDGKLYRQEGFEVISQGLANAGWREVDANQEPSEKNRTYSHSVFMFSGGERGGPLATYLASAAQRSNFNLWVNTSVRRAIRTGPRVSGVELECLADGGFNGTVNLKEGGGVIFSAGAFGSAKLLLRSGIGPEDQLEIVASSKDGETFISKNDWIKLPVGHNLIDHLNTDLIITHPDVVFYDFYAAWDNPITEDKEAYLNSRSGILAQAAPNIGPLMWEEVTPSDGITRQFQWTCRVEGDSSKTNSTHAMTLSQYLGRGVVSRGRMGITSGLTTTVAEHPYLHNDGDLEAVIQGIQNVVDALSQVPDLEWVLPPPNTTVEEYVNSLIVSPANRRANHWMGTAKMGLDDGRSGGSAVVDLNTKVYGTDNLFVVDASIFPGMSTGNPSAMIVIVAEQAAQRILSLRY
Protein B5 has a Km [5] of 37.5 mM, a kcat [5] of 19.67 s⁻¹ and a kcat/Km [5] of 524.5 M⁻¹ s⁻¹. For the same protein, the Km [6] was 80.0 mM, the kcat [6] was 0.95 s⁻¹ and the kcat/Km [6] was 12 M⁻¹ s⁻¹.

B6: Corynascus thermophilus CDH flavodehydrogenase domain (amino acids 249-787 of SEQ ID NO: 7) variant C310Y (C310YDH) (Thermothelomyces fergusii; C310Y) (protein)
chain: YDYIVVGAGAGGITVADKLSEAGHKVLLIEKGPPSTGLWNGTMKPEWLEGTDLTRFDVPGLYNQIWVDSAGIACTDTDQMAGCVLGGGTAVNAGLWWKPHPADWDDNFPHGWKSSDLADATERVFSRIPGTWHPSQDGKLYRQEGFEVISQGLANAGWREVDANQEPSEKNRTYSHSVFMFSGGERGGPLATYLASAAQRSNFNLWVNTSVRRAIRTGPRVSGVELECLADGGFNGTVNLKEGGGVIFSAGAFGSAKLLLRSGIGPEDQLEIVASSKDGETFISKNDWIKLPVGHNLIDHLNTDLIITHPDVVFYDFYAAWDNPITEDKEAYLNSRSGILAQAAPNIGPLMWEEVTPSDGITRQFQWTCRVEGDSSKTNSTHAMTLSQYLGRGVVSRGRMGITSGLTTTVAEHPYLHNDGDLEAVIQGIQNVVDALSQVPDLEWVLPPPNTTVEEYVNSLIVSPANRRANHWMGTAKMGLDDGRSGGSAVVDLNTKVYGTDNLFVVDASIFPGMSTGNPSAMIVIVAEQAAQRILSLRY
B6 gave a Km [7] of 37.1 mM, a kcat [7] of 17.6 s⁻¹ and a kcat/Km [7] of 474.4 M⁻¹ s⁻¹. The Km [8] was 51.86 mM, the kcat [8] was 0.69 s⁻¹ and the kcat/Km [8] was 13.3 M⁻¹ s⁻¹.
